This sample holds only a part of the variants without activity.
B1: TPR 5TU (parent)
chain: GGAUCUUCUCGAUCUAACAAAAAAGACAAAUCUGCCACAAAGCUUGAGAGCAUCUUCGGAUGCAGAGGCGGCAGCCUUCGGUGGCGCGAUAGCGCCAACGUUCUCAACUAUGACACGCAAAACGCGUGCUCCGUUGAAUGGAGUUUAUCAUG

Variants of: B1
Assay: polymerase ribozyme fitness, log enrichment relative to wild type (log ratio); higher = more active; in vitro selection for triplet polymerase activity
Procedure, shortened: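 To select mutant libraries of each subunit of a heterodimeric triplet polymerase ribozyme, built by PCR and transcribed, each was annealed with a biotinylated primer, partner subunit and triplets, then incubated frozen at −7 °C. Extended constructs were gel-excised, captured on streptavidin beads and amplified by RT-PCR, in one round carried out in triplicate. Illumina sequencing of input and output libraries kept genotypes with ≥10 input reads and ≥1 read per output. Fitness is the base-2 logarithm of genotype enrichment relative to wild-type enrichment, from inverse-variance-weighted replicate averages.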

Variant	polymerase ribozyme fitness (log ratio)
A30C U55G C95A U135G U148A	-3.85
C57A U61A C95U A97U A115U U144C	≤ -4.2
C51G G80A G84U G140C	≤ -4.2
C14G A23U C54G G67U A142U U151A	≤ -4.2
A52U U56A G83C G84A C99G A106U U144A	≤ -4.2
U45A G50A U55G C87G G94C	≤ -4.2
C32G U53A C79U G140U	-4.06
C69U C76G U130A	≤ -4.2
A52G C54A C69A C87G U90C G100U C103A C105G	≤ -4.2

— the RNAGym collection of RNA variant scans (doi:10.1073/pnas.2313332121)
